A word on the Kd: it is the free concentration of one partner at which half of the binding sites on the other are occupied at equilibrium, for simple one-to-one binding. A word on the koff: it is a measure of how fast the partners let go of each other. A word on the kon: it is a measure of how fast the partners come together.

The record followed here is patent US20220184177A1 (SAINT JOSEPH S UNIVERSITY, published 2022).

B1: CAPER peptide HCC1.3 (amino acid residues 356-400) (peptide)
peptide: Biotin-RLQLMARLAEGTGLQIPPAAQQALQMSGSLAFGAVADLQTRLSQQ
notes: Custom synthesized (LifeTein), crude purity, N-terminal biotin; A TAT control peptide was run alongside, so the TAT form is possible
B2: Recombinant Full-Length CAPER HCC1.3 (other)
chain: ADDIDIEAMLEAPYKKDENKLSSANGHEERSKKRKKSKSRSRSHERKRSKSKERKRSRDRERKKSKSRERKRSRSKERRRSRSRSRDRRFRGRYRSPYSGPKFNSAIRGKIGLPHSIKLSRRRSRSKSPFRKDKSPVREPIDNLTPEERDARTVFCMQLAARIRPRDLEEFFSTVGKVRDVRMISDRNSRRSKGIAYVEFVDVSSVPLAIGLTGQRVLGVPIIVQASQAEKNRAAAMANNLQKGSAGPMRLYVGSLHFNITEDMLRGIFEPFGRIESIQLMMDSETGRSKGYGFITFSDSECAKKALEQLNGFELAGRPMKVGHVTERTDASSASSFLDSDELERTGIDLGTTGRLQLMARLAEGTGLQIPPAAQQALQMSGSLAFGAVADLQTRLSQQTEASALAAAASVQPLATQCFQLSNMFNPQTEEEVGWDTEIKDDVIEECNKHGGVIHIYVDKNSAQGNVYVKCPSIAAAIAAVNALHGRWFAGKMITAAYVPLPTYHNLFPDSMTATQLLVPSRR
notes: Bought from R&D Systems; also called full-length recombinant CAPER; CAPER isoform HCC1.3
B3: His-tagged recombinant c-Jun (other, UniProt P05412 1-331, looked up)
chain: MTAKMETTFYDDALNASFLPSESGPYGYSNPKILKQSMTLNLADPVGSLKPHLRAKNSDLLTSPDVGLLKLASPELERLIIQSSNGHITTTPTPTQFLCPKNVTDEQEGFAEGFVRALAELHSQNTLPSVTSAAQPVNGAGMVAPAVASVAGGSGSGGFSASLHSEPPVYANLSNFNPGALSSGGGAPSYGAAGLAFPAQPQQQQQPPHHLPQQMPVQHPRLQALKEEPQTVPEMPGETPPLSPIDMESQERIKAERKRMRNRIAASKCRKRKLERIARLEEKVKTLKAQNSELASTANMLREQVAQLKQKVMNHVNSGCQLMLTQQLQTF
notes: Captured on BLI tips by an anti-his tag antibody; also called c-Jun receptor; c-Jun component of AP-1; not shown: his tag
B4: CAPER peptide HCC1.4 (amino acid residues 356-400) (peptide)
peptide: Biotin-RLQLMARLAEGTGLQIPPAAQQALQMSGSLAFGAVAEFSFVIDLQ
notes: Custom synthesized (LifeTein), crude purity, N-terminal biotin
B5: CAPER peptide Scrambled (peptide)
peptide: Biotin-VGDALQGLRLFSTQASIGAQMEQLAAQPLRAGQMLQLAQASPLRT
notes: Control peptide; also called CAPER Scrambled Peptide; CAPER scrambled peptide
B6: TAT Control Peptide (peptide)
peptide: Biotin-YGRKKRRQRRR
notes: Control peptide; also called TAT only control

Test [1] addresses B3. Briefly: BLI (Octet), his-tagged c-Jun captured by anti-his antibody, 1:1 model.
The target in another test is T1, Estrogen Receptor α (UniProt P03372 1-595, limits assumed).
T1 construct: also called ERα; ERa
T1 sequence (looked up): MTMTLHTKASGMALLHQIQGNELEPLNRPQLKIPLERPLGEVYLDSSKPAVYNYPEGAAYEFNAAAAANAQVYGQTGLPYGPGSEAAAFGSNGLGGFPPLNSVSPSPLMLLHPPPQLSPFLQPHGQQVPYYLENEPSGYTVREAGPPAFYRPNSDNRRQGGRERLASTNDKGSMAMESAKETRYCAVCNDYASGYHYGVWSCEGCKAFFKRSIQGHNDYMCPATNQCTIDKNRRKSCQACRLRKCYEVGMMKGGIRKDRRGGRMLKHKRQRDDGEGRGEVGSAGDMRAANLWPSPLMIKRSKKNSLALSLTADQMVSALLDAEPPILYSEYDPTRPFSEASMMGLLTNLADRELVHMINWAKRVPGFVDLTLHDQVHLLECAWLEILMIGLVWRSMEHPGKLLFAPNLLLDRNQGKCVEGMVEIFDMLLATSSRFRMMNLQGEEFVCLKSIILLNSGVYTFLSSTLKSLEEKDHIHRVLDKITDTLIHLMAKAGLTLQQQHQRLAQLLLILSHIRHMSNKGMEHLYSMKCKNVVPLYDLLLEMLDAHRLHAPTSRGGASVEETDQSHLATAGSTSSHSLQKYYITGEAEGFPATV
Nature of the test: binding kinetics on ERα (method not described, presumably BLI).

Test [2] has as its target B2. Nature of the test: BLI (Octet), his-tagged c-Jun captured by anti-his antibody, 1:1 model. For orientation: BLI is a label-free optical method that tracks binding on a fibre tip over time.
The target of test [3] is B3. Briefly: BLI (Octet), His-tagged c-Jun captured on anti-His tips, peptide in solution.
For test [4], the target named is B3. Briefly: BLI, his-tagged c-Jun captured by anti-his antibody.

Where no end group is shown, it is not given here. The star is where a group is joined. Biotin = O=C1N[C@H]2[C@H](CS[C@H]2CCCCC(=O)*)N1

Turning to B1, in test [1], the Kd was 8.89 nM, the koff was determined as 0.000337 s⁻¹ and the kon was 37900 M⁻¹ s⁻¹. For the same molecule, in the test with Estrogen Receptor α, the affinity, expressed as Kd, was 4.5 nM; the koff is 0.000115 s⁻¹; the kon was determined as 25400 M⁻¹ s⁻¹.

Turning to B2, in the test with Estrogen Receptor α, the affinity, expressed as Kd, was 0.02 nM; the koff stood at 2.34e-05 s⁻¹; the kon was determined as 937000 M⁻¹ s⁻¹.

In the case of B3, in test [2], the Kd came to 0.18 nM, the koff worked out at 5.66e-05 s⁻¹ and the kon was 312000 M⁻¹ s⁻¹.

B4: in test [1], the Kd was 25.6 nM, the koff is 0.00098 s⁻¹ and the kon stood at 38300 M⁻¹ s⁻¹. In the test with Estrogen Receptor α, this molecule displayed a Kd of 30.2 nM, a koff of 0.00172 s⁻¹ and a kon of 57100 M⁻¹ s⁻¹.

For the molecule B5, the binding result in test [3] is reported as “no binding (tested: 1000 (no unit printed on the sheet))”.

With B6, the binding result in test [4] was “no binding”.
